Source: patent US20150086555A1

Experiments:
Conditions in all cases: remark: other sources report otherwise
[1] = target: recombinant soluble homotrimeric HA of A/Indonesia/5/05 (H5N1) (Influenza A virus A/Indonesia/5/2005(H5N1)); assay: HA microarray, BCC supernatant
[2] = target: T1, recombinant soluble homotrimeric HA of A/Vietnam/1203/04 (H5N1) (Influenza A virus A/VietNam/1203/2004(H5N1)); assay: HA microarray, BCC supernatant
[3] = target: recombinant soluble homotrimeric HA of A/Wisconsin/67/05 (H3N2) (Influenza A virus A/Wisconsin/67/2005(H3N2)); assay: HA microarray, BCC supernatant
[4] = target: recombinant homotrimeric HA A/Hong Kong/2108/03 H9N2 (Influenza A virus A/HK/2108/2003(H9N2)); assay: protein microarray, purified IgG, trimeric HA
[5] = target: recombinant homotrimeric HA A/duck/Yangzhou/02/05 H8N4 (Influenza A virus A/duck/Yangzhou/02/2005(H8N4)); assay: protein microarray, purified IgG, trimeric HA
[6] = target: recombinant homotrimeric HA A/California/4/09 H1N1 (Influenza A virus A/California/04/2009(H1N1)); assay: protein microarray, purified IgG, trimeric HA
[7] = target: recombinant homotrimeric HA A/Japan/305/57 H2N2 (Influenza A virus A/Japan/305/1957(H2N2)); assay: protein microarray, purified IgG, trimeric HA
[8] = target: recombinant homotrimeric HA A/South Carolina/1/18 H1N1 (Influenza A virus A/South Carolina/1/18 (H1N1)); assay: protein microarray, purified IgG, trimeric HA
[9] = target: recombinant homotrimeric HA A/Indonesia/5/05 H5N1 (Influenza A virus A/Indonesia/5/2005(H5N1)); assay: protein microarray, purified IgG, trimeric HA
[10] = target: recombinant homotrimeric HA A/Egypt/3300-NAMRU3/08 H5N1 (Influenza A virus A/Egypt/3300-NAMRU3/2008(H5N1)); assay: protein microarray, purified IgG, trimeric HA
[11] = target: recombinant homotrimeric HA A/Vietnam/1203/04 H5N1 (Influenza A virus A/VietNam/1203/2004(H5N1)); assay: protein microarray, purified IgG, trimeric HA
[12] = target: recombinant homotrimeric HA A/Anhui/1/05 H5N1 (Influenza A virus A/Anhui/1/2005(H5N1)); assay: protein microarray, purified IgG, trimeric HA
[13] = target: T2, recombinant soluble homotrimeric HA of A/chicken/Vietnam/NCVD-016/08 (H5N1) (Influenza A virus A/chicken/Vietnam/NCVD-016/2008(H5N1)); assay: trimeric HA microarray, transfection supernatant set 5
[14] = target: T1, recombinant soluble homotrimeric HA of …; assay: as above
[15] = target: recombinant soluble homotrimeric HA of A/South Carolina/1/18 (H1N1) (Influenza A virus A/South Carolina/1/18 (H1N1)); assay: as above
[16] = target: recombinant soluble homotrimeric HA, A/Solomon Islands/3/06 H1N1 (Influenza A virus A/Solomon Islands/3/2006(H1N1)); assay: microarray, transfection SN IgG, trimeric HA
[17] = target: recombinant soluble homotrimeric HA, A/northern shoveler/California/HKWF115/07 H6N4 (Influenza A virus A/northern shoveler/California/HKWF115/2007(H6N1)); assay: microarray, transfection SN IgG, trimeric HA
[18] = target: recombinant soluble homotrimeric HA, A/Wisconsin/67/05 H3N2 (Influenza A virus A/Wisconsin/67/2005(H3N2)); assay: microarray, transfection SN IgG, trimeric HA
[19] = target: recombinant soluble homotrimeric HA, A/chicken/Vietnam/NCVD-016/08 H5N1 (Influenza A virus A/chicken/Vietnam/NCVD-016/2008(H5N1)); assay: microarray, transfection SN IgG, trimeric HA
[20] = target: recombinant soluble homotrimeric HA, A/California/4/09 H1N1 (Influenza A virus A/California/04/2009(H1N1)); assay: microarray, transfection SN IgG, trimeric HA
[21] = target: recombinant soluble homotrimeric HA, A/Japan/305/57 H2N2 (Influenza A virus A/Japan/305/1957(H2N2)); assay: microarray, transfection SN IgG, trimeric HA
[22] = target: recombinant soluble homotrimeric HA, A/South Carolina/1/18 H1N1 (Influenza A virus A/South Carolina/1/18 (H1N1)); assay: microarray, transfection SN IgG, trimeric HA
[23] = target: recombinant soluble homotrimeric HA, A/swine/Ontario/01911-2/99 H4N6 (Influenza A virus A/Swine/Ontario/01911-2/99 (H4N6)); assay: microarray, transfection SN IgG, trimeric HA
[24] = target: recombinant soluble homotrimeric HA, A/Netherlands/219/03 H7N7 (Influenza A virus A/Netherlands/219/03(H7N7)); assay: microarray, transfection SN IgG, trimeric HA
[25] = target: recombinant soluble homotrimeric HA, A/Egypt/3300-NAMRU3/08 H5N1 (Influenza A virus A/Egypt/3300-NAMRU3/2008(H5N1)); assay: microarray, transfection SN IgG, trimeric HA
[26] = target: recombinant homotrimeric HA A/Wisconsin/67/05 H3N2 (Influenza A virus A/Wisconsin/67/2005(H3N2)); assay: protein microarray, purified IgG, trimeric HA
[27] = target: recombinant homotrimeric HA A/Netherlands/219/03 H7N7 (Influenza A virus A/Netherlands/219/03(H7N7)); assay: protein microarray, purified IgG, trimeric HA
[28] = target: recombinant homotrimeric HA A/chicken/Vietnam/NCVD-016/08 H5N1 (Influenza A virus A/chicken/Vietnam/NCVD-016/2008(H5N1)); assay: protein microarray, purified IgG, trimeric HA
[29] = target: recombinant homotrimeric HA A/Hong Kong/1073/99 H9N2 (Influenza A virus A/Hong Kong/1073/99 (H9N2)); assay: protein microarray, purified IgG, trimeric HA
[30] = target: recombinant homotrimeric HA A/northern shoveler/California/HKWF115/07 H6N4 (Influenza A virus A/northern shoveler/California/HKWF115/2007(H6N1)); assay: protein microarray, purified IgG, trimeric HA
[31] = target: recombinant homotrimeric HA A/Solomon Islands/3/06 H1N1 (Influenza A virus A/Solomon Islands/3/2006(H1N1)); assay: protein microarray, purified IgG, trimeric HA
[32] = target: recombinant soluble homotrimeric HA, A/duck/Yangzhou/02/05 H8N4 (Influenza A virus A/duck/Yangzhou/02/2005(H8N4)); assay: microarray, transfection SN IgG, trimeric HA
[33] = target: T2, recombinant soluble homotrimeric HA of …; assay: HA microarray, BCC supernatant
[34] = target: recombinant soluble homotrimeric HA of A/Netherlands/219/03 (H7N7) (Influenza A virus A/Netherlands/219/03(H7N7)); assay: HA microarray, BCC supernatant
[35] = target: recombinant soluble homotrimeric HA of A/Solomon Islands/3/06 (H1N1) (Influenza A virus A/Solomon Islands/3/2006(H1N1)); assay: HA microarray, BCC supernatant
[36] = target: recombinant soluble homotrimeric HA of A/swine/Ontario/01911-2/99 (H4N6) (Influenza A virus A/Swine/Ontario/01911-2/99 (H4N6)); assay: HA microarray, BCC supernatant
[37] = target: recombinant soluble homotrimeric HA of A/Japan/305/57 (H2N2) (Influenza A virus A/Japan/305/1957(H2N2)); assay: HA microarray, BCC supernatant
[38] = target: recombinant soluble homotrimeric HA of A/northern shoveler/California/HKWF115/07 (H6) (Influenza A virus A/northern shoveler/California/HKWF115/2007(H6N1)); assay: HA microarray, BCC supernatant
[39] = target: recombinant soluble homotrimeric HA of A/Hong Kong/2108/03 (H9N2) (Influenza A virus A/HK/2108/2003(H9N2)); assay: HA microarray, BCC supernatant
[40] = target: recombinant soluble homotrimeric HA of A/Anhui/1/05 (H5N1) (Influenza A virus A/Anhui/1/2005(H5N1)); assay: HA microarray, BCC supernatant
[41] = target: recombinant soluble homotrimeric HA of A/Egypt/3300-NAMRU3/08 (H5N1) (Influenza A virus A/Egypt/3300-NAMRU3/2008(H5N1)); assay: HA microarray, BCC supernatant

B1: TCN-541 (5062_M11) (antibody, V domains shown)
VH: QVQLQESGPGLVKPSETLSLTCTVSGGSINSYYWNWIRQPPGKGLEWIGYIYHSGSTNYNPSLKSRVTISVDTSKNQFSLQLSSVTAADTAVYYCARLRTDYGDPDSVYYYGMDVWGQGTTVTVSS
VL: SYELTQPPSVSVSPGQTARITCSGDALPKQNAYWYQQKPGQAPVLLIYKDSERPSGIPERFSGSSSGTTVTLTISGVQAEDEADYYCQSADSSGTSWVFGGGTKLTVL
B1 showed a Trimeric HA Binding: RLU [1] of 30 RLU, a Trimeric HA Binding: RLU [2] of 43 RLU and a Trimeric HA Binding: RLU [3] of 2920 RLU. For the same binder, the Trimeric HA Binding: RLU [4] was 175 RLU, the Trimeric HA Binding: RLU [5] was 352 RLU and the Trimeric HA Binding: RLU [6] was 348 RLU. It also gave a Trimeric HA Binding: RLU [7] of 934 RLU, a Trimeric HA Binding: RLU [8] of 192 RLU and a Trimeric HA Binding: RLU [9] of 160 RLU. The Trimeric HA Binding: RLU [10] was 791 RLU, the Trimeric HA Binding: RLU [11] was 1150 RLU and the Trimeric HA Binding: RLU [12] was 970 RLU. The Trimeric HA Binding: RLU [13] was 11000 RLU, the Trimeric HA Binding: RLU [14] was 45500 RLU and the Trimeric HA Binding: RLU [15] was 2580 RLU.

B2: TCN-558 (5248_H10b) (antibody, V domains shown)
VH: QVQLVQSGSEVKKPGTSVKVSCTASGSVFTNYGISWVRQAPGQGLEWMGGIIPLFGAAKYAQKFQGRVTITADESTKTVYMELSRLTSKDTAIYFCAKAPRVYEYYFDQWGQGTPVTVSS
VL: EIVMTQFPATLSVSPGERVTLSCRASQSVSNNLAWYQQKPGQPPRLLIYDASTRATGVPAKFSGTGSGTEFTLSISSLQSEDFAVYYCQQYHNWPPSYSFGLGTKLEIK
For B2, the Trimeric HA Binding: RLU [16] was 36100 RLU, the Trimeric HA Binding: RLU [17] was 29400 RLU and the Trimeric HA Binding: RLU [18] was 26600 RLU. It also gave a Trimeric HA Binding: RLU [19] of 33400 RLU, a Trimeric HA Binding: RLU [20] of 20200 RLU and a Trimeric HA Binding: RLU [21] of 34400 RLU. It also gave a Trimeric HA Binding: RLU [22] of 40700 RLU, a Trimeric HA Binding: RLU [23] of 10000 RLU and a Trimeric HA Binding: RLU [24] of 5840 RLU. For the same binder, the Trimeric HA Binding: RLU [25] was 21900 RLU, the Trimeric HA Binding: RLU [4] was 257 RLU and the Trimeric HA Binding: RLU [26] was 320 RLU. The Trimeric HA Binding: RLU [6] was 24700 RLU, the Trimeric HA Binding: RLU [27] was 623 RLU and the Trimeric HA Binding: RLU [28] was 9730 RLU. It also gave a Trimeric HA Binding: RLU [7] of 27200 RLU, a Trimeric HA Binding: RLU [8] of 13600 RLU and a Trimeric HA Binding: RLU [29] of 4380 RLU. For the same binder, the Trimeric HA Binding: RLU [10] was 25500 RLU, the Trimeric HA Binding: RLU [30] was 12300 RLU and the Trimeric HA Binding: RLU [31] was 22000 RLU.

B3: TCN-554 (5277_M05) (antibody, V domains shown)
VH: QVQLVQSGADLKKPGASVKVSCKASGYTFTDYYIHWVRQAPGQGLEWMGWINPESGDTKYAQKFQGRVTMTRDTSITTAYMELGRLRSDDTAVYYCARDVSTTWSWFAPWGQGTLVTVSS
VL: DIVMTQSPDSLAVSLGERATINCRSSQSIFHNSNNENYLAWYQQKPGQPPKLLIYWASTRESGVPDRFSGSGSGTDFTLTISSLQAEDVAVYFCQQYYNAPLTFGGGTKVEIK
Work on B3 yielded a Trimeric HA Binding: RLU [17] of 3350 RLU, a Trimeric HA Binding: RLU [18] of 25300 RLU and a Trimeric HA Binding: RLU [32] of 5810 RLU. The Trimeric HA Binding: RLU [19] was 2710 RLU, the Trimeric HA Binding: RLU [21] was 2620 RLU and the Trimeric HA Binding: RLU [22] was 1260 RLU. For the same binder, the Trimeric HA Binding: RLU [24] was 4520 RLU, the Trimeric HA Binding: RLU [33] was 250 RLU and the Trimeric HA Binding: RLU [34] was 610 RLU. It also gave a Trimeric HA Binding: RLU [35] of 115 RLU, a Trimeric HA Binding: RLU [3] of 46500 RLU and a Trimeric HA Binding: RLU [36] of 78 RLU. The Trimeric HA Binding: RLU [37] was 328 RLU, the Trimeric HA Binding: RLU [26] was 27100 RLU and the Trimeric HA Binding: RLU [5] was 386 RLU. It also gave a Trimeric HA Binding: RLU [27] of 342 RLU, a Trimeric HA Binding: RLU [28] of 544 RLU and a Trimeric HA Binding: RLU [7] of 705 RLU. The Trimeric HA Binding: RLU [8] was 166 RLU, the Trimeric HA Binding: RLU [29] was 539 RLU and the Trimeric HA Binding: RLU [31] was 1540 RLU.

B4: TCN-521 (3280_D18) (antibody, V domains shown)
VH: EVQLVQSGGGLVQPGGSLRLACVVSGFTVTSNYITWVRQAPGKGLEWVSVIYSHGRAYYSASVNGRFTISRHTSKNTVYLEMNSLRPEDTAVYYCAGGGLVGGYDEYFFDYWGQGTLATVSS
VL: ETVLTQSPGTLSLTPGERATLSCRVGQSVSGSHLAWYQQKPGQAPRLLIYGASSRATGIPDRFGGSVSGTDFTLTISRLEPEDSAVYYCQQYGDSRYTFGQGTKLEIK
For B4, the Trimeric HA Binding: RLU [1] was 31500 RLU, the Trimeric HA Binding: RLU [33] was 32400 RLU and the Trimeric HA Binding: RLU [38] was 48000 RLU. It also gave a Trimeric HA Binding: RLU [34] of 2500 RLU, a Trimeric HA Binding: RLU [39] of 93 RLU and a Trimeric HA Binding: RLU [35] of 39600 RLU. For the same binder, the Trimeric HA Binding: RLU [40] was 487 RLU, the Trimeric HA Binding: RLU [41] was 47900 RLU and the Trimeric HA Binding: RLU [37] was 6730 RLU.
